Measurements as given in US20170340698A1, “CYCLIC PEPTIDE SPECIFICALLY BINDING TO APOPTOTIC CELLS AND USE THEREOF” (KYUNGPOOK NATIONAL UNIVERSITY INDUSTRY-ACADEMIC COOPERATION …, priority 2014, published 2017).

Test system: SNU16 human stomach cancer cell line
Assay: In vitro binding of FITC-conjugated peptides to apoptotic cells, flow cytometry
Type: cell-based
Settings: fluorescent probe
Experimental: SNU16 human stomach cancer cell line was purchased from KCLB (Seoul, Korea). […] After treatment, cells were incubated with fluorescein isothiocyanate (FITC)-conjugated linear or cyclic form of ApoPep-1 peptide at 4[…] for 1 hour. As control, cells were stained with Alexa488-conjugated annexin V (Life technologies, Carlsbad, Calif.) for 15 min at room temperature. Percentages of fluorescent (the liner or cyclic form of ApoPep-1 peptide-bound or annexin V-bound fluorescence) cells were calculated by measurement and analysis methods through the selection of the fluorescent signals (the liner or cyclic form of ApoPep-1 peptide-bound or annexin V-bound fluorescence), which were shown in the respective cells when cells in an emulsion state pass through a constant fluorescence detection zone, using flow cytometry (Fluorescence-activated cell sorting (FACS), FACS calibur, BD Biosciences, MA, USA).
Cyclic form of ApoPep-1 (cyclo[CQRPPRC] peptide of the present invention) was prepared by adding cysteine residue at the carboxy terminal of linear form of ApoPep-1 (CQRPPR) and performing cyclization through disulfide bonding.

B1: annexin V: existing apoptotic probe used as control, Alexa488-conjugated (Life technologies) (protein, UniProt P08758 2-320, looked up)
Annexin A5: AQVLRGTVTDFPGFDERADAETLRKAMKGLGTDEESILTLLTSRSNAQRQEISAAFKTLFGRDLLDDLKSELTGKFEKLIVALMKPSRLYDAYELKHALKGAGTNEKVLTEIIASRTPEELRAIKQVYEEEYGSSLEDDVVGDTSGYYQRMLVVLLQANRDPDAGIDEAQVEQDAQALFQAGELKWGTDEEKFITIFGTRSVSHLRKVFDKYMTISGFQIEETIDRETSGNLEQLLLAVVKSIRSIPAYLAETLYYAMKGAGTDDHTLIRVMVSRSEIDLFNIRKEFRKNFATSLYSMIKGDTSGDYKKALLLLCGEDD
modifications: Alexa488 conjugate
SNU16 cells treated with cetuximab alone (200 ug/ml) for 24 hours
  percentage of apoptotic cells detected: ~40%
SNU16 cells treated with cisplatin (300 ng/ml) plus cetuximab in combination for 24 hours
  percentage of apoptotic cells detected: ~45%
SNU16 cells treated with cisplatin alone (300 ng/ml) for 24 hours
  percentage of apoptotic cells detected: approximately 43%
